Experimental findings from paper PMC5919683, “Transcription factor HAT1 is a substrate of SnRK2.3 kinase and negatively regulates ABA synthesis and signaling in Arabidopsis responding to drought” (PLoS Genetics, 2018) are described below.

Data set [1] deals with T1, MBP-HAT1 (Arabidopsis thaliana (Col-0), UniProt P46600 1-282).
T1 sequence: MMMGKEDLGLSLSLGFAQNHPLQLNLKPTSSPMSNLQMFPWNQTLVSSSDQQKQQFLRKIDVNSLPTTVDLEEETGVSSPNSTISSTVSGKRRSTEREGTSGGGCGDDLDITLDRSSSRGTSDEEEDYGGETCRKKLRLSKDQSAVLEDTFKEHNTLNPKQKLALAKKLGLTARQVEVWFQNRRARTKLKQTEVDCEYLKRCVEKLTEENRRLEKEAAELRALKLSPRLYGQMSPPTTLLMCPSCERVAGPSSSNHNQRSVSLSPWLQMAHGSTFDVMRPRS
The data set can be described thus: EMSA; EMSA: 25 mM HEPES-KOH pH 8.0, 50 mM KCl, 1 mM DTT, 10% glycerol, 20 uL, ~1 ng probe, 30 min on ice; 5% native PAGE, 1x TGE pH 8.7. The following applies: protein: recombinant; tags: MBP (pETMALc-H); chain copies: 2. Background: In EMSA bound probe runs differently from free probe, usually more slowly.

For data set [2], the target named is T2, GST-SnRK2.3 (Arabidopsis thaliana, UniProt Q39193 1-361).
T2 construct: SnRK2.3 of Arabidopsis; coding region inserted into pGEX-6P-1; also called GST-SnRK2s; SnRK2.3 fused with GST; source: recombinant (pGEX-6P-1 vector), purified with glutathione beads (Sigma)
T2 sequence (looked up): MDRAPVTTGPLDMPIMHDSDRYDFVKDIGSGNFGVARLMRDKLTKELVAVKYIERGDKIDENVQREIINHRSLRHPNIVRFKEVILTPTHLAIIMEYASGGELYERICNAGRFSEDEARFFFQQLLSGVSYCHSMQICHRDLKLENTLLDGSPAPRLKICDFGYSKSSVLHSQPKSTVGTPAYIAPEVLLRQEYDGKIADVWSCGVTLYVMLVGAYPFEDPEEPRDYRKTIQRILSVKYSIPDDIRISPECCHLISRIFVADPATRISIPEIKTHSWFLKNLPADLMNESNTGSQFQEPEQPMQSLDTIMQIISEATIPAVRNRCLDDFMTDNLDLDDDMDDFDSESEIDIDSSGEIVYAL
The data set can be described thus: pull-down; GST pull-down: GST or GST-SnRK2s as bait, MBP-tagged HAT1 or its domains detected by western blotting with anti-MBP antibody. The following applies: both partners purified. A general note: In western blotting, separated proteins are transferred to a membrane and probed.

Data set [3] concerns the target T3, GST-SnRK2.2 (Arabidopsis thaliana, UniProt Q39192 1-362).
T3 construct: SnRK2.2 of Arabidopsis; coding region inserted into pGEX-6P-1; also called GST-SnRK2s; source: recombinant (pGEX-6P-1 vector); purification told only for GST-SnRK2.3
T3 sequence (looked up): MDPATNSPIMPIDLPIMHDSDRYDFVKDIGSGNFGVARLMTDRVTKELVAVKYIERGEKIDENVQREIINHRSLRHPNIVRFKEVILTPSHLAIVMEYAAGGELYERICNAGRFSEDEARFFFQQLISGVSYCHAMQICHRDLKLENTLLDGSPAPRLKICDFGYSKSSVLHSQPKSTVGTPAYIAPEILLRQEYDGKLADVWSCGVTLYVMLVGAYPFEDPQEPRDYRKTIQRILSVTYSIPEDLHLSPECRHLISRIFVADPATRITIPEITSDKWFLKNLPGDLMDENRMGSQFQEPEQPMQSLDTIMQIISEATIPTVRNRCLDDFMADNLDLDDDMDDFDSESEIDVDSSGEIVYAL
The description is as above. The following applies: both partners purified.

The target in data set [4] is T4, GST-SnRK2.6 (Arabidopsis thaliana, UniProt Q940H6 1-362).
T4 construct: SnRK2.6 of Arabidopsis; coding region inserted into pGEX-6P-1; also called GST-SnRK2s; source: recombinant (pGEX-6P-1 vector); purification told only for GST-SnRK2.3
T4 sequence (looked up): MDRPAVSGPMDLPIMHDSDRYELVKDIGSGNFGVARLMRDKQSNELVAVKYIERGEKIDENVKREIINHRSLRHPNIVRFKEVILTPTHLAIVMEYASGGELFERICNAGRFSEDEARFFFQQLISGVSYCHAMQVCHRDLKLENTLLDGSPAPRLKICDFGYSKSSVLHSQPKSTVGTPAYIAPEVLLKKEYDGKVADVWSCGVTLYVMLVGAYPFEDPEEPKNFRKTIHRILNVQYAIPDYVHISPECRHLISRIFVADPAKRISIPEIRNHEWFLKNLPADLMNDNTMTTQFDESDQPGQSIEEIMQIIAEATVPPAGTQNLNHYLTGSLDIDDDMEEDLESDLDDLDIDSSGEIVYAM
Described as above. The following applies: both partners purified.

B1: NCED3 N1 WT probe (dsDNA)
DNA 1: AAAAATTCCAATTATTGTGTTACTCTATTCTTCTAAA
DNA 2: TTTAGAAGAATAGAGTAACACAATAATTGGAATTTTT
On to B1, for which the binding result in data set [1] was “binds”.

B2: ABA3 A1 mutant probe (dsDNA)
DNA 1: ATATTTAATTGCTGGTCGTTGGTTTAAACAAAATT
DNA 2: AATTTTGTTTAAACCAACGACCAGCAATTAAATAT
For B2, the binding result in data set [1] is on record as “no binding”.

B3: NCED3 N1 mutant probe (dsDNA)
DNA 1: AAACATTCGCTGGTCGTTGTTACTCTATTCTTCTAAA
DNA 2: TTTAGAAGAATAGAGTAACAACGACCAGCGAATGTTT
For the molecule B3, the binding result in data set [1] is reported as “no binding”.

B4: MBP-HAT1 (natural protein, Arabidopsis thaliana, UniProt P46600 1-282, looked up)
chain: MMMGKEDLGLSLSLGFAQNHPLQLNLKPTSSPMSNLQMFPWNQTLVSSSDQQKQQFLRKIDVNSLPTTVDLEEETGVSSPNSTISSTVSGKRRSTEREGTSGGGCGDDLDITLDRSSSRGTSDEEEDYGGETCRKKLRLSKDQSAVLEDTFKEHNTLNPKQKLALAKKLGLTARQVEVWFQNRRARTKLKQTEVDCEYLKRCVEKLTEENRRLEKEAAELRALKLSPRLYGQMSPPTTLLMCPSCERVAGPSSSNHNQRSVSLSPWLQMAHGSTFDVMRPRS
notes: HAT1 of Arabidopsis thaliana; the HAT1 coding region amplified from Col-0 cDNA; The methods of the EMSA speak of recombinant proteins purified from E. coli; also called MBP-tagged HAT1; MBP-fusion HAT1 protein; source: recombinant (pETMALc-H vector), purified with amylose resin (NEB)
For B4, the binding result in data set [2], in data set [3] and in data set [4] was “binds” throughout.

B5: ABA3 A1 WT probe (dsDNA)
DNA 1: ATATTTAATTTAATAATTATTGGTTTAAACAAAATT
DNA 2: AATTTTGTTTAAACCAATAATTATTAAATTAAATAT
Consider B5, for which, in data set [1], the binding result was “binds”.
